# Experimental data published in publication PMC6103272, “Genome-Wide Association Studies of Free Amino Acid Levels by Six Multi-Locus Models in Bread Wheat” (Frontiers in Plant Science, 2018).
# Experiments:
# [1] = system: N[C@@H](Cc1c[nH]c2ccccc12)C(=O)O; test: decarboxylase kinetics, Michaelis-Menten fit; product tryptamine by LC-MS; format: biochemical, Oryza sativa; settings: 50 ppm PLP, 10-1,250 uM tryptophan, assay buffer of the standard assay 50 mM Tris-HCl pH 8.0, 37 C
# TraesCS1D01G052500 = system: T1, TraesCS1D01G052500; test: as above; format: biochemical, Triticum aestivum; settings: 50 ppm PLP; 10-1,250 uM tryptophan; assay buffer of the standard assay 50 mM Tris-HCl pH 8.0, 37 C
# T1 construct: gene TDC; full-length cDNA in pGEX-6p-1; E. coli BL21(DE3)
Km (TraesCS1D01G052500),Compound,Km [1],kcat [1],kcat/Km [1]
,OsTDC1 (Oryza sativa Japonica Group),310 ± 30 µM,3.66 ± 0.27 s⁻¹,11800 M⁻¹ s⁻¹
100 ± 10 µM,N[C@@H](Cc1c[nH]c2ccccc12)C(=O)O [tryptophan],,,
